The record followed here is US20260345776 (published 2026).

In test [1] the target is T1, FOLR1 (human, UniProt P15328). The experiment in a line: BLI, 25C.
The target of test [2] is T1, FOLR1. The experiment in a line: FACS, FOLR+ KB cells.

T1 sequence (P15328 25-234): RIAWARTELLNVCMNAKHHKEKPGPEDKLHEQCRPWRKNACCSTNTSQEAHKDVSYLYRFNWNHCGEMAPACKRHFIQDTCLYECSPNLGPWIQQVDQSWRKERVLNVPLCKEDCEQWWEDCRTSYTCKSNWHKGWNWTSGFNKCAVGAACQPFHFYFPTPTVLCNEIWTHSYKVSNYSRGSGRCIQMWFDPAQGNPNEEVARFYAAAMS

B1: b-SpyTag003(D2)-K(folate) (peptide)
chain: RGVPHIVMVDAYKRYKG
modifications: biotinylated; two D-arginine substitutions; additional C-terminal Lys conjugated to folate (folate is the FOLR1-binding moiety)
With B1, the Kd (commonly a measure of binding affinity in units of concentration) was found to be 0.345 nM with FOLR1 [1] and 16.1 nM with FOLR1 [2].
